Test results reported in patent US20230183661A1, “BICOMPATIBLE PEPTIDEBIOCOMPATIBLE PEPTIDES FOR INHIBITION OF AGGREGATION OF B-AMYLOID PROTEIN” (Catholic University Industry Academic Cooperation Foundation, priority 2017, published 2023).
“Also recorded” adds a separate entry of the source.

What was measured:
nerve cells (N2a) [1] = assay: Cytotoxicity by nuclear morphology through IFA; format: cell-based, mouse; conditions: overexpressed in N2a, FIG. 5
Procedure: (§1) Twenty-four hours after the transfection, N2a cells were incubated in a 4% paraformaldehyde fixation solution for 15 minutes. The cells were washed with PBS three times, and incubated in a 50 mM NH4Cl/PBS quenching solution for 10 minutes.
(§2) Subsequently, the cells were washed with PBS three times, and incubated in a 0.1% Triton X-100/PBS solution for 5 minutes. The cells were then treated and incubated with 2% FBS/blocking buffer at room temperature for 1 hour. The cells were then treated and incubated with FLAG antibodies diluted 1/100 at room temperature for 2 hours, washed with PBS three times, and then treated and incubated with a goat anti-mouse Alexa Fluor®-red 594 dye.
(§3) The sample was washed with PBS three times, and mounted on a glass slide using a FluoroGuard Antifade reagent (Bio-Rad Laboratories, Inc.). A fluorescent image was obtained using a confocal laser scanning microscope (Zeiss LSM 510 Meta, Carl Zeiss AG), and processed using Adobe® Photoshop®, and a fluorescence signal intensity was measured using a ZEN 2009 Light Edition software program.
To confirm cytotoxicity of the peptide (NABi) of the present invention, the peptide of the present invention was overexpressed in nerve cells (N2a), and a nuclear morphology was observed through IFA. […]

Aβ [2] = molecular target: T1, Aβ (Homo sapiens, UniProt P05067); assay: Co-IP assay of SOD1 truncated peptides co-overexpressed with Aβ in nerve cells (N2a); format: binding; set-up: Aβ, and generally a peptide consisting of 36 to 43 amino acids; expressed in transfected cells; host or cells: N2a (murine neuroblastoma); conditions: for Acting with β-amyloid / Binding strength with β-amyloid: Co-IP; for Acting with β-amyloid: peptide and Aβ overexpressed in N2a; for Binding strength with β-amyloid: relative score without scale; for Binding to Aβ: FIG. 3, Co-IP; for Binding strength to Aβ: FIG. 3
Procedure: The transfected HEK293T, H4 and N2a cells were lysed in a NETN buffer and incubated on ice for 1 hour. This solution includes 100 mM of NaCl, 1 mM of EDTA, 20 mM of Tris-HCl (pH 8.0), 0.5% (v/v) NP-40 and protease inhibitors. Among the protease inhibitors, aprotinin and leupeptin have a concentration of 2 μg/ml, and PMSF has a concentration of 0.1 mM.
1 mg of a protein extract and 1 μg of a primary antibody were mixed and cultured at 4° C. for 12 hours. The mixture was mixed with Protein G Sepharose 4 Fast Flow (GE Healthcare), and cultured at 4° C. for 1 hour, yielding a binding immune complex through centrifugation. A sample buffer was added to the precipitated Sepharose and boiled, and the buffer includes 44 mM Tris-HCl (pH 6.8), 2% SDS, 144 mM β-mercaptoethanol, 10% (v/v) glycerol, and 0.004% (v/v) bromophenol blue.
The immunoprecipitated sample was subjected to 12% SDS-polyacrylamide gel electrophoresis (SDS-PAGE) to transfer proteins to a membrane, and then immunoblotting with a FLAG antibody, a SOD1 antibody and a GFP antibody.
To identify a β-strand exposed at a protein surface and inhibiting Aβ protein aggregate formation through interactions with Aβ, all types of truncated fragments of SOD1 consisting of eight β-strands (β1 to β8) were systemically designed and constructed (FIG. 2). FIG. 2 schematically illustrates SOD1 and the β1-to-β8 structure of SOD1, and the sequences of Peptides 1 to 6.
To determine a determinant binding to Aβ, various peptides from which a specific β-strand was removed were constructed. Peptide 2 was prepared by removing a β-turn linked to the β2 strand in Peptide 1. Peptides 1 to 6 and Aβ were overexpressed in nerve cells (N2a), and then a Co-IP assay was performed.

Aβ [3] = molecular target: T1, Aβ; assay: FRAP assay of Aβ mobility in nerve cells (N2a); format: cell-based; set-up: Aβ, and generally a peptide consisting of 36 to 43 amino acids; expressed in transfected cells; host or cells: N2a (murine neuroblastoma); conditions: FIG. 9
Procedure: Fluorescence recovery after photobleaching (FRAP) is a technique for detecting the mobility of a fluorescence-tagged molecule in living cells. N2a cells were cultured in a 35 mm cell culture dish at a density of 5×10^4 cells/dish, and after 12 hours, a target plasmid was transfected into the cells.
Thirty six hours after the transfection, whether an aggregate was formed was analyzed by a laser confocal microscope. A specific area (white box part) was photobleached 15 times using 594 nm laser, and then fluorescence recovery in the photobleached part was measured at an interval of 3 seconds.
To confirm the inhibition of Aβ aggregation by the peptide (NABi) of the present invention, the peptide of the present invention and Aβ were overexpressed in nerve cells (N2a), a predetermined region was repeatedly exposed to a high intensity laser beam through a FRAP assay. Afterward, an Aβ protein was removed from the laser beam-exposed region, and then fluorescence recovery according to migration of peripheral Aβ proteins was measured in real time.
For the control, after Aβ was overexpressed in nerve cells (N2a), fluorescence recovery according to migration of peripheral Aβ proteins was measured in real time through a FRAP assay.

nerve cells (H4 cells) [4] = assay: Neural cell death through PI staining; format: cell-based; conditions: peptide and Aβ overexpressed in H4 cells, FIG. 10
Source text: Approximately 40 to 50% of the H4 cells were positive for a neuron marker (neuron-specific enolase; NSE). Since the H4 cells were sensitive to an Aβ aggregate, and neural cell death resulted from the Aβ aggregate, they were used in neural cell death analysis.
For the control, Aβ was overexpressed in nerve cells (H4 cells).

nerve cells (H4 cells) [5] = assay: Neural cell death-associated proteins through IB at different peptide expression levels; format: cell-based; conditions: peptide and Aβ expressed in H4 cells, FIG. 13 lanes 6 to 8
Procedure: (§4) Cells were lysed in an RIPA buffer and incubated at 4° C. for 30 minutes. The RIPA buffer includes 2 μg/mL of a composition including 0.15 M NaCl, 0.5% (v/v) sodium-deoxycholate, 0.1% (v/v) SDS, 0.05 M Tris-HCl (pH 8.0), 1% (v/v) NP-40, aprotinin and leupeptin, 1 mM PMSF and a phosphatase inhibitor.
(§5) The phosphatase inhibitor included 1 mM Na3VO4 and 1 mM NaF. A protein concentration was measured by a Bradford assay (Bio-Rad Laboratories). The sample was separated in a 12% or 15% SDS-polyacrylamide gel.
(§6) The cells were lysed in a lysis buffer (Catalog No. 9803, Cell Signaling Technology), and the sample was separated in a 13% blue gel according to the manufacturer's protocol (MitoSciences Inc.).
(§7) Proteins were transferred to Protran® nitrocellulose membranes (Sigma-Aldrich Co. LLC), and then the membranes were incubated in a 5% non-fat dried milk/TBST solution at room temperature for 1 hour. […]
(§8) The membranes were incubated with a primary antibody at room temperature for 1 hour, and incubated again with a secondary antibody for 1 hour. The antigen-antibody complex was detected using an enhanced chemiluminescence kit (Santa Cruz Biotechnology, Inc.). […]
For the control, after Aβ was expressed in nerve cells (H4 cells), the expression and activity of a neural cell death-associated protein were measured through IB.

Aβ protein aggregate = molecular target: T2, Aβ protein aggregate (Homo sapiens, UniProt P05067); assay: Aβ aggregation inhibition in nerve cells through IFA; format: cell-based; conditions: peptide and Aβ expressed, FIG. 7; Aβ-only control about 50% cells with aggregates
T2 construct: Aβ, and generally a peptide consisting of 36 to 43 amino acids; expressed in transfected cells; host or cells: N2a (murine neuroblastoma)
Procedure: as §1, §2, §3
To confirm the inhibition of Aβ aggregation by the peptide (NABi) of the present invention, the peptide of the present invention and Aβ were expressed in nerve cells, and then an Aβ protein aggregate was quantitatively analyzed through IFA. […]

nerve cells (N2a) [6] = assay: Cytotoxicity through IB of neural cell death-associated proteins; format: cell-based, mouse; conditions: peptide overexpressed in N2a, FIG. 6
Procedure: as §4, §5, §6, §7, §8
For the control, normal nerve cells (N2a) were treated with STS to induce apoptotic cell death (apoptosis positive control), and then the expression and activity of a neural cell death-associated protein were evaluated.

Aβ [7] = molecular target: T1, Aβ; assay: Aβ aggregate formation under aggregate formation conditions, measured through IB; format: biochemical; conditions: FIG. 8
Procedure: 9. Formation of β-Amyloid Aggregate A monomer recombinant Aβ42 (Catalog No. 03-111, Invitrogen™ Co.) peptide was added to 1,1,1,3,3,3-hexafluoro-2-propanol (HFIP, Sigma-Aldrich Co. LLC) and stored in a −80° C. freezer, and the HFIP was evaporated and removed immediately before use. For the Aβ aggregate formation, 20 μM of Aβ peptides were dissolved in a 0.1 M HEPES/TBS buffer or 0.01 M HCl/TBS buffer and incubated at 37° C. for 14 days. The TBS buffer included 50 mM Tris-HCl and 150 mM NaCl.
To confirm the inhibition of Aβ aggregation by the peptide (NABi) of the present invention, the peptide (NABi) of the present invention and Aβ were cultured under i) a 0.1 M HEPES/TBS (pH 7.4) condition or ii) a 0.01 M HCl/TBS condition, and then the degree of Aβ aggregate formation was measured through IB.
Under an Aβ aggregate formation condition, for example, i) a 0.1 M HEPES/TBS (pH 7.4) condition or ii) a 0.01 M HCl/TBS condition, the control was subjected to IB in order to measure a degree of Aβ aggregate formation.

nerve cells (H4 cells) [8] = assay: Neural cell death through AnnexinV staining at different peptide expression levels; format: cell-based; conditions: all expression levels of the peptide, H4 cells with Aβ, FIG. 12
Source text: An expression level of the peptide of the present invention was differentially adjusted.

nerve cells (H4 cells) [9] = assay: Neural cell death through nuclear morphology; format: cell-based; conditions: peptide and Aβ overexpressed in H4 cells, versus Aβ-only control, FIG. 11
Source text: For the control, Aβ was overexpressed in the nerve cells (H4 cells).

nerve cells (N2a) [10] = assay: Self-aggregate formation of peptide overexpressed in nerve cells (N2a), immunofluorescence; format: cell-based, mouse
Procedure: as §1, §2, §3
To identify whether a self-aggregate of the peptide (NABi) of the present invention was formed, the peptide of the present invention was overexpressed in nerve cells (N2a), and then measured by an immunofluorescence method.

G93A: SOD1 mutant in which the 93th amino acid glycine was changed to alanine; aggregation and apoptosis comparator [Peptide G93A, reference compound]
Cells with condensed and fragmented nuclei (nerve cells (N2a) [1]): approximately 50%

Peptide 3: truncated fragment of SOD1 consisting of β-strands β4 to β6, 75 aa
Acting with β-amyloid (Aβ [2]): Not acting | Binding strength with β-amyloid (Aβ [2]): 0 | Binding to Aβ (Aβ [2]): did not bind to Aβ

Peptide 4: truncated fragment of SOD1, β1-to-β3 sequence, 39 aa (SEQ ID NO: 2) (ATKAVCVLKGDGPVQGIINFEQKESNGPVKVWGSIKGLT; peptide 2)
Binding strength with β-amyloid (Aβ [2]): 1 | Binding strength to Aβ (Aβ [2]): bound to Aβ at a similar strength

Peptide 5: Natural Amyloid β Binder and Amyloid β aggregation inhibitor; β1-to-β5 strand sequence of SOD1, 90 aa (SEQ ID NO: 3 or 4)
Nuclear morphology (nerve cells (N2a) [1]; compared with normal N2a control): normal nuclear morphology | Recovery of fluorescence removed by photobleaching (Aβ [3]; within 20 seconds): 50% | Recovery of fluorescence removed by photobleaching (Aβ [3]; within 90 seconds): 75% | Reduction of the number of PI-stained apoptotic cells compared to the control (nerve cells (H4 cells) [4]): approximately ⅓ | Detection of truncated caspase-3, truncated PARP and truncated Lamin A/C (nerve cells (H4 cells) [5]): greatly reduced | Nerve cells in which no Aβ protein aggregate was observed (Aβ protein aggregate): ≥ 80% | Binding strength with β-amyloid (Aβ [2]): 1 | Binding strength to Aβ (Aβ [2]): bound to Aβ at a similar strength; also recorded: strongly bound to Aβ | Binding to Aβ (Aβ [2]): bound to Aβ | Truncated forms of PARP1, Lamin A/C (nerve cells (N2a) [6]): not detected either | Active caspase-3, active caspase-8, active caspase-9 and γ-H2AX (nerve cells (N2a) [6]; STS as apoptosis positive control): not detected | Reduction of Aβ aggregates compared to the control (Aβ [7]; i) 0.1 M HEPES/TBS (pH 7.4)): 1/10 | Reduction of Aβ aggregates compared to the control (Aβ [7]; ii) 0.01 M HCl/TBS): ⅓ | Neural cell death by AnnexinV staining (nerve cells (H4 cells) [8]): neural cell death was inhibited | Morphological changes in nuclei (chromosomal condensation and fragmentation) (nerve cells (H4 cells) [9]): less morphological changes in nuclei | Self-aggregate formation (nerve cells (N2a) [10]): did not form a self-aggregate

Peptide 6: truncated fragment of SOD1 consisting of β-strands β5 to β8, 74 aa
Acting with β-amyloid (Aβ [2]): Not acting | Binding strength with β-amyloid (Aβ [2]): 0 | Binding to Aβ (Aβ [2]): did not bind to Aβ
